This test has as its target T1, MBP-YDA (Arabidopsis, UniProt Q9CAD5 1-883).
T1 sequence (looked up): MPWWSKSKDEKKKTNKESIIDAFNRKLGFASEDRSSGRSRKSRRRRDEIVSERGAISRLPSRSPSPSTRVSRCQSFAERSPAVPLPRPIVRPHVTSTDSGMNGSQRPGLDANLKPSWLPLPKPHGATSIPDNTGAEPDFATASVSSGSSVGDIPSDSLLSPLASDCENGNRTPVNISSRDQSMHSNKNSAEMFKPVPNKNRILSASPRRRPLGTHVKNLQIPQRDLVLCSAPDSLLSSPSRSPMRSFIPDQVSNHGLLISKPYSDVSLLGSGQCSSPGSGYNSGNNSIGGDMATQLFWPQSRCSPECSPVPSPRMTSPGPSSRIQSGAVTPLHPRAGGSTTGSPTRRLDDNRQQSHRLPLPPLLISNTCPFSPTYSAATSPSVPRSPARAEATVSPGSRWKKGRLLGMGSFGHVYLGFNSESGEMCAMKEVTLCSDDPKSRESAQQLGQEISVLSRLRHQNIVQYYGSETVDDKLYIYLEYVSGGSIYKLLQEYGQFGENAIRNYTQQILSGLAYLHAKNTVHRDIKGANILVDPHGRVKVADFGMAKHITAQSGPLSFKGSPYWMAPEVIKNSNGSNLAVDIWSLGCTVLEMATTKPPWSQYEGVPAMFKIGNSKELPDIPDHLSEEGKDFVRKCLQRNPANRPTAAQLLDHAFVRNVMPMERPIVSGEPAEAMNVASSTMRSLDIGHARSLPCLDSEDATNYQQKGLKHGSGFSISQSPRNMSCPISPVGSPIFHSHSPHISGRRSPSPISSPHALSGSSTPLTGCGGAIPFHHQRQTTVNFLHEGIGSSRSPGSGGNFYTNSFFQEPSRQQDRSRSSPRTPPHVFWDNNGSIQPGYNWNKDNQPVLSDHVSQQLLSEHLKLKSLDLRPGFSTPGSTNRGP
Description: far-Western, overlay or dot blot.

B1: GST-BIN2 (enzyme, Arabidopsis, UniProt Q39011 1-380, looked up)
chain: MADDKEMPAAVVDGHDQVTGHIISTTIGGKNGEPKQTISYMAERVVGTGSFGIVFQAKCLETGETVAIKKVLQDRRYKNRELQLMRVMDHPNVVCLKHCFFSTTSKDELFLNLVMEYVPESLYRVLKHYSSANQRMPLVYVKLYMYQIFRGLAYIHNVAGVCHRDLKPQNLLVDPLTHQVKICDFGSAKQLVKGEANISYICSRFYRAPELIFGATEYTTSIDIWSAGCVLAELLLGQPLFPGENAVDQLVEIIKVLGTPTREEIRCMNPHYTDFRFPQIKAHPWHKIFHKRMPPEAIDFASRLLQYSPSLRCTALEACAHPFFDELREPNARLPNGRPFPPLFNFKQEVAGSSPELVNKLIPDHIKRQLGLSFLNQSGT
For B1, the binding result is on record as “binds”.
